# According to patent US20170080102A1:
# B1: IMGN779 (anti-huCD33 antibody huMy9-6 conjugated to DGN462 via a cleavable disulfide sulfo-SPDB linker) (antibody, from a related filing, V domains shown)
# VH: QVQLQQPGAEVVKPGASVKMSCKASGYTFTSYYIHWIKQTPGQGLEWVGVIYPGNDDISYNQKFQGKATLTADKSSTTAYMQLSSLTSEDSAVYYCAREVRLRYFDVWGQGTTVTVSS
# VL: EIVLTQSPGSLAVSPGERVTMSCKSSQSVFFSSSQKNYLAWYQQIPGQSPRLLIYWASTRESGVPDRFTGSGSGTDFTLTISSVQPEDLAIYYCHQYLSSRTFGQGTKLEIKR
# Tests used:
# [1] = target: CD33 protein (human), on primary patient AML cells and AML cell lines (human) (UniProt P20138); experiment: cell-based or functional assay
# [2] = target: CD33 protein (human), on primary patient AML cells and AML cell lines (human) (UniProt P20138); experiment: cell-based or functional assay; remark: listed apart in the source
# Sequence of UniProt P20138 (P20138 18-364): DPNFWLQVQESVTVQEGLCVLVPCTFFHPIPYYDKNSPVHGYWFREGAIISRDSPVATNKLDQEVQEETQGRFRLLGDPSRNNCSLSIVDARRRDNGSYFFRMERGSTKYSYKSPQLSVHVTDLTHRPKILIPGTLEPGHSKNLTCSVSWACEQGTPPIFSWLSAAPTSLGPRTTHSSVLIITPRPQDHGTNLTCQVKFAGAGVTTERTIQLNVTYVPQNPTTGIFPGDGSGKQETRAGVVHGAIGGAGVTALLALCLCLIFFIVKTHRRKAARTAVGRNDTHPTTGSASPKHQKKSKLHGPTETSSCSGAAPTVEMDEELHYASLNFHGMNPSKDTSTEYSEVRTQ
Molecule,"IC50, cytotoxicity against primary patient AML cells [1] [pM]","IC50, cytotoxicity on MOLM-13 FLT3-ITD AML cell line (WST-8 assay) [2] [pM]","IC50, cytotoxicity on MV4-11 FLT3-ITD AML cell line (WST-8 assay) [2] [pM]","IC50, cytotoxicity on a panel of 21 AML cell lines (WST-8 assay) [2] [pM]","IC50, cytotoxicity on a panel of 21 AML cell lines (WST-8 assay), median [2] [pM]","IC50, in vitro cytotoxicity against primary patient AML cells [2] [pM]"
non-binding chimeric IgG1-DGN462 conjugate (antibody),> 1000,,,,,
B1,,5,2,2 to 3000,70,10 to 1500
